Results reported in the supplement of paper PMC10567573.

B1: C10orf62 (parent)
chain: MLWVQRKRRRKETSECPSDKDKSP

Variants of: B1
Test: protein stability index of a GFP-peptide fusion (GPS, HEK-293T) (PSI 1-6); higher = more stable
Settings: c terminus: a fixed tail appended
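Further: lentivirally expressed fusions sorted by FACS into six bins by GFP to DsRed ratio, PSI derived from sequencing read proportions per bin multiplied by bin number.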

Variant	protein stability index
MLWVSRKRRRKETSECPSDKDKSP	3.85
MLWVLRKRRRKETSECPSDKDKSP	2.4
MLWVQRKRRRKETSECPSDKDKRP	2.88
MLWVQRKRRRKETSECPSDKDKTP	3.05
MLWVQRKRRRKETSECPSDKDKIP	2.4
MLWVQRKRRRKETSECPSDKDKNP	3.29
MLWVQRKRRRKETSECPSDKDKAP	3.2
MLWVQRKRRRKETSECPSDKDKQP	3.42
MLWVQRKRRRKETSECPSDKDKLP	3.38
MLWVQRKRRRKETSECPSDKDKYP	2.69
MLWVQRKRRRKEKSECPSDKDKSP	3.55
MLWVQRKRRRKEISECPSDKDKSP	2.52
MLWVQRKRRRKEESECPSDKDKSP	2.99
MLWVQRKRRRKEHSECPSDKDKSP	3.39
MLWVQRKRRRKEQSECPSDKDKSP	2.58
MLWVQRKRRRKESSECPSDKDKSP	2.25
MLWVQRKRRRKEPSECPSDKDKSP	3.04
MLWVQRKRRRKEGSECPSDKDKSP	2.15
MLWVQRKRRRKETSTCPSDKDKSP	2.95
MLWVQRKRRRKETSCCPSDKDKSP	3
MLWVQRKRRRKETSACPSDKDKSP	3.71
MLWVQRKRRRKETSNCPSDKDKSP	3.52
MLWVQRKRRRKETSECPSDKDISP	2.61
MLWVQRKRRRKETSECPSDKDMSP	3.06

Variant	protein stability index
MLWVQRKRRRKETSECPSDKDNSP	3.47
MLWVQRKRRRKETSECPSDKDESP	2.83
MLWVQRKRRRKETSECPSDKDDSP	2.48
MLWVQRKRRRKETSECPSDKDSSP	3.18
MLWVQRKRRRWETSECPSDKDKSP	2.45
MLWVQRKRRRLETSECPSDKDKSP	3.55
MLWVQRKRRREETSECPSDKDKSP	3.06
MLWVQRKSRRKETSECPSDKDKSP	3.91
MLWVQRKGRRKETSECPSDKDKSP	4.16
MLWVQRKYRRKETSECPSDKDKSP	3.19
MLWVQRKARRKETSECPSDKDKSP	3.9
MLWVQRKERRKETSECPSDKDKSP	5.08
MLWVQRKMRRKETSECPSDKDKSP	3.74
MLWVQRKRRRKETSECESDKDKSP	2.41
MLWVQRKRRRKETSECISDKDKSP	2.96
MLWVQRKRRRKETSECHSDKDKSP	2.81
MLWVQRKRRRKETSECWSDKDKSP	2.86
MLWVQRKRRRKETSECDSDKDKSP	2.6
MLWVQRKRRRKETSECRSDKDKSP	2.52
MLWVQRKRRRKETSECQSDKDKSP	3.36
MLFVQRKRRRKETSECPSDKDKSP	3.25
MLWGQRKRRRKETSECPSDKDKSP	3.89
MLWMQRKRRRKETSECPSDKDKSP	2.52
MLWIQRKRRRKETSECPSDKDKSP	2.87

Variant	protein stability index
MLWVQRKRNRKETSECPSDKDKSP	3.18
MLWVQRKRERKETSECPSDKDKSP	3.71
MLWVQRKRLRKETSECPSDKDKSP	3.08
MLWVQRKRKRKETSECPSDKDKSP	2.73
MLWVQRKRRRKETSEYPSDKDKSP	3.1
MLWVQRKRRRKETSEPPSDKDKSP	2.16
MLWVQRKRRRKETSEEPSDKDKSP	3.25
MLWVQRKRRRKETSERPSDKDKSP	3.35
MLWVQRKRRRKWTSECPSDKDKSP	2.5
MLWVQRKRRRKKTSECPSDKDKSP	3.44
MLWVQRKRRRKETSECPSDKDKST	2.98
MLWVQRKRRRKETIECPSDKDKSP	2.74
MLWVQRKRRRKETNECPSDKDKSP	3.14
MLWVQRKRRRKETFECPSDKDKSP	3.12
MLWVQRKRRNKETSECPSDKDKSP	3.78
MLWVQRKRRTKETSECPSDKDKSP	3.79
MLWVQRKRRAKETSECPSDKDKSP	3.85
MLWVQRKRREKETSECPSDKDKSP	3.86
MLWVQRKRRCKETSECPSDKDKSP	2.51
MLWVQRKRRMKETSECPSDKDKSP	3.13
MLWVQRKRRRKETSECPSDLDKSP	3.01
MLWVQRKRRRKETSECPSDRDKSP	2.81
MLWVQRKRRRKETSECPSDIDKSP	3.7
MVWVQRKRRRKETSECPSDKDKSP	2.6

Variant	protein stability index
MYWVQRKRRRKETSECPSDKDKSP	2.41
MEWVQRKRRRKETSECPSDKDKSP	4
MIWVQRKRRRKETSECPSDKDKSP	3.21
YLWVQRKRRRKETSECPSDKDKSP	3.4
PLWVQRKRRRKETSECPSDKDKSP	2.83
HLWVQRKRRRKETSECPSDKDKSP	3.73
MLWVQVKRRRKETSECPSDKDKSP	2.95
MLWVQNKRRRKETSECPSDKDKSP	3.87
MLWVQHKRRRKETSECPSDKDKSP	2.88
MLWVQMKRRRKETSECPSDKDKSP	3.49
MLWVQTKRRRKETSECPSDKDKSP	3.13
MLWVQRKRRRKETSECPSHKDKSP	2.77
MLWVQRKRRRKETSECPSAKDKSP	2.77
MLWVQRKRRRKETSECPSIKDKSP	2.84
MLWVQRKRRRKETSECPSEKDKSP	2.46
MLWVQRKRRRKETSECPSFKDKSP	2.57
MLWVQRLRRRKETSECPSDKDKSP	1.73
MLWVQRPRRRKETSECPSDKDKSP	3.97
MLWVQRKRRRKETSECPMDKDKSP	2.94
MLWVQRKRRRKETSECPYDKDKSP	2.43
MLWVQRKRRRKETSECPKDKDKSP	2.77
MLWVQRKRRRKETSECPHDKDKSP	2.85
